# Source: the DeepSol protein solubility set
# Assay: soluble on expression in E. coli; label from the status in PepcDB or PDB records
row,Sequence,soluble on expression in E. coli
1,MRGSHHHHHHGSGKSYPTVSADYQKAVEKAKKKLRGFIAEKRCAPLMLRLAWHSAGTFDKGTKTGGPFGTIKHPAELAHSANNGLDIAVRLLEPLKAEFPILSYADFYQLAGVVAVEVTGGPEVPFHPGREDKPEPPPEGRLPDATKGSDHLRDVFGKAMGLTDQDIVALSGGHTIGAAHKERSGFEGPWTSNPLIFDNSYFTELLSGEKEGLLQLPSDKALLSDPVFRPLVDKYAADEDAFFADYAEAHQKLSELGFADAHEM,soluble
2,MSLKKAIAYMRFSSPGQMSGDSLNRQRRLIAEWLKVNSDYYLDTITYEDLGLSAFKGKHAQSGAFSEFLDAIEHGYILPGTTLLVESLDRLSREKVGEAIERLKLILNHGIDVITLCDNTVYNIDSLNEPYSLIKAILIAQRANEESEIKSSRVKLSWKKKRQDALESGTIMTASCPRWLSLDDKRTAFVPDPDRVKTIELIFKLRMERRSLNAIAKYLNDHAVKNFSGKESAWGPSVIEKLLANKALIGICVPSYRARGKGISEIAGYYPRVISDDLFYAVQEIRLAPFGISNSEGHHHHHH,soluble
3,MSLNYDWIKTRATFDEPKAAVIDPFKGTEWTYQDLNIRAENLANYLQEQGVQRGDVVGIFSPNDVALLDLLFASFKLGAVYLPINWRLKTQEIESVIADSDVKLIFYSAKHLSSLEGIADELIHMDIDSKTYDDIVDPTHHRPFTTVSVEGDDLASLMYTSGTTGLPKGVMFSYDSFVNNPINTALTYKVYASYTTIISTPMFHVLGFNDLTIPLLMAGGTLVLQRYFNGESLNDLMAQYQPNFLIQIPTMYYAMLVADNFDLKNFANIEFLIQGGAAPLPTVQKKFVSLGIPIITGYGLTEAPLVSVNTAANNERKPASIGQPVMFTDTRIFDDNFEEVQVGEIGELGVRGNNVTPGYWNKPEETAKAFSGEFFLTGDLAKIDEDGDVYIVDRRKEMIITGGENVLPSEVERVLSEHPLVAQGVVVGYDSPKYGESVSAAVVLTEDDPDFEQKLDAHMREHIAGYKIPRLYLKLTHIPLNSTSKPDKLEIQKYMNDKAQKQDQSKDEGHHHHHH,not soluble
4,AVFNYALMPSLQQFNKILAHELNLVLDEDGPLKSDAPLRRQLLERLGVTVHSINSEKAVEFNHAMSIDLMSEEMTQELGSPTEVRLLLGSESYILWMHIEKLPNSIIRIPLSELQEEDFAPLFR,not soluble
5,MTTPPPRMLPSGDTAITVEFGRDISDESNRRVLALDRKLKQAPIAGILETVPTYRSLLVHYDPETIGFGALSDQLTALAHTSDESETVAKRRWRIPVCYGGEHGIDLEDAAQALNITPDALVARHAAGDYRVAMIGFTPGWSYLSGLDPALAMPRRQAPRLHTPAGTISVGGIQTGIQCLAGPSGWHLLGRTPVRTYQLHREPIFLLEPGDAISFAQIDAKEFAERDDAASHGEVVAELLSALEHHHHHH,soluble
6,MATKLQDGNTPCLAATPSEPRPTVLVFDSGVGGLSVYDEIRHLLPDLHYIYAFDNVAFPYGEKSEAFIVERVVAIVTAVQERYPLALAVVACNTASTVSLPALREKFDFPVVGVVPAIKPAARLTANGIVGLLATRGTVKRSYTHELIARFANECQIEMLGSAEMVELAEAKLHGEDVSLDALKRILRPWLRMKEPPDTVVLGCTHFPLLQEELLQVLPEGTRLVDSGAAIARRTAWLLEHEAPDAKSADANIAFCMAMTPGAEQLLPVLQRYGFETLEKLAVLG,soluble
7,MGSDKIHHHHHHMLERAVTYKNNGQINIILNGQKQVLTNAEAEAEYQATLQKNEAKHGILKEIEKEMSALVGMEEMKRNIKEIYAWIFVNQKRAEQGLKVGKQALHMMFKGNPGTGKTTVARLIGKLFFEMNVLSKGHLIEAERADLVGEYIGHTAQKTRDLIKKSLGGIWFIDEAYSLARGGEKDFGKEAIDTLVKHMEDKQHEFILILAGYSREMDHFLSLNPGLQSRFPISIDFPDYSVTQLMEIAKRMIDEREYQLSQEAEWKLKDYLMTVKSTTSPIKFSNGRFVRNVIEKSIRAQAMRLLMGDQYLKSDLMTIKSQDLSIKEEASGSA,not soluble
8,MAHHHHHHMDMQEQISDKGADDYDDTLVELKESELLKEDEKKKTKKKLYELNELHHLVNALPYIDSYDNELEQNAKRLVEEEMNLMHKNNEIKNYLETFPLPKITYLSNDNSIIQNELKRCEENRKMQKLNFDHYNIENDVLNNKNIEEWEKTLKKYEIILENSHNALINMELMNKYKEVMWSEHMKVFNHLDINLQNNIKTLKDDIDNINKKRKLHQLSYVNELSTLQNEQKEYKKKNNMVLNEIKKLMTENMLMKYKTNMI,not soluble
